Data published in paper PMC2873993, “Comparative Therapeutic Effects of Velaglucerase Alfa and Imiglucerase in a Gaucher Disease Mouse Model” (PLoS ONE, 2010).
Residue numbers refer to the chain shown, from its start. Like-named read-outs stand apart in the source and are kept apart here.

What was measured:
[1] = Tissue GCase activity, CRIM and CRIM-SA (liver, spleen, lung) after i.v. bolus; settings: for Recovery of injected activity in liver / Recovery of injected activity in lung / Recovery of injected activity in spleen: 60 U/kg bolus, % ± SE; for peak liver activity relative to WT: 20 min
[2] = Serum GCase activity, CRIM and CRIM-SA after i.v. bolus; settings: for Recovery of injected activity in serum: 60 U/kg bolus, peak 2 min, % ± SE
9 V/null mice [3] = assay: Total serum IgE ELISA in mice that died after injection; settings: mice that died after 4 or 5 injections of 60 U/kg/wk, n = 3
9 V/null mice [4] = assay: Mouse anti-human GCase IgG ELISA
cathepsin D = assay: Protease susceptibility to cathepsin D digestion; assay type: biochemical; settings: for degradation by cathepsin D after 4 h: cathepsin D 1 µg/ml; for degradation by cathepsin D within 4 h: cathepsin D 2 µg/ml
Method: Vela and Imig were compared for kinetic properties as described. Briefly, the standard GCase activity assay contained final concentrations of 50 mM citrate/phosphate, pH 5.5, 0.25% TC, 0.25% TX, and 4 mM 4MU-Glc in 200 µl. The reactions were stopped after incubation (30–60 min, 37°C) using 0.9 M ethylenediamine, pH 11.0 (100 µl). Standard curves for 4-MU fluorescence yield were generated for each assay with Ex/Em 460/515 nm (Molecular Dynamics SpectraMax GeminXS spectrofluorometer). […] For the reversible competitive inhibitors, Ki was calculated from IC50 = Ki (1+ [I]/[Km]). The IC50 or Ki values for various inhibitors (dNM and its derivatives, CBE, CS, IFG, DNPFG) were determined using 4MU-Glc as substrate. Activities with the NBD-GC substrate were as described. Enzyme assays with saposin C (0–500 nM/0.5 µM BPS) and BPS (0–2 µM) were as described, [40]. Saposin C was expressed in E. coli and purified as described. For thermostability assessments, equal amounts of Vela and Imig activities were added to 50 mM citrate/phosphate, pH 7.4, with or without human/mouse serum, and incubated for 0–240 min at 25 or 37°C. The pH optimum profiles were developed using 50 mM citrate/phosphate, pH 4.4–7.2. […] All assays were conducted in triplicate and repeated at least twice. The amounts of intact enzyme were determined from density measurements on immunoblots and were compared to the initial amounts. The ratios of intact enzyme with and without cathepsin D were used as indicators of the enzyme's proteolytic susceptibility.

patients = settings: human, in vivo; cited from earlier work
9 V/null mice [5] = settings: mouse, in vivo
[6] = mouse, in vivo, iv
[7] = mouse, in vivo
[8] = 5-wk 9 V/null mice, peak 20 min
[9] = 5-wk 9 V/null mice, 60 U/kg i.v.
[10] = 20-wk 9 V/null mice, peak 20 min
[11] = 20-wk 9 V/null mice, 60 U/kg i.v.

B1: velaglucerase alfa (protein)
chain: ARPCIPKSFGYSSVVCVCNATYCDSFDPPTFPALGTFSRYESTRSGRRMELSMGPIQANHTGTGLLLTLQPEQKFQKVKGFGGAMTDAAALNILALSPPAQNLLLKSYFSEEGIGYNIIRVPMASCDFSIRTYTYADTPDDFQLHNFSLPEEDTKLKIPLIHRALQLAQRPVSLLASPWTSPTWLKTNGAVNGKGSLKGQPGDIYHQTWARYFVKFLDAYAEHKLQFWAVTAENEPSAGLLSGYPFQCLGFTPEHQRDFIARDLGPTLANSTHHNVRLLMLDDQRLLLPHWAKVVLTDPEAAKYVHGIAVHWYLDFLAPAKATLGETHRLFPNTMLFASEACVGSKFWEQSVRLGSWDRGMQYSHSIITNLLYHVVGWTDWNLALNPEGGPNWVRNFVDSPIIVDITKDTFYKQPMFYHLGHFSKFIPEGSQRVGLVASQKNDLDAVALMHPDGSAVVVVLNRSSKDVPLTIKDPAVGFLETISPGYSIHTYLWRRQ
modifications: N-linked oligosaccharides with higher α-mannosyl content (predominant number of mannoses is 9)
- Recovery of injected activity in liver [1, 8]: 57.53±1.35%
- Recovery of injected activity in lung [1, 8]: 0.1±0.01%
- Recovery of injected activity in spleen ([1]; 5-wk 9 V/null mice, peak 40 min): 1.86±0.06%
- drop of liver activity within 40 min [1, 9]: about 60%
- liver GCase activity by 42 h [1, 9]: 13–18 % of WT
- peak spleen activity lower than in 20-wk mice [1, 9]: 2- to 3 fold
- splenic CRIM-SA [1, 9]: 0.2–0.8×10^6 nmoles/h/mg enzyme protein
- time liver activity remained at ≥WT level [1, 9]: 70 to 80 min
- t½ of CRIM levels in spleen [1, 9]: ~2 h
- t½ of activity disappearance in liver [1, 9]: about 60 min
- peak liver activity relative to WT [1, 9]: ~2.5 fold
- Recovery of injected activity in liver [1, 10]: 60.36±2.01%
- Recovery of injected activity in lung [1, 10]: 0.04±0.01%
- Recovery of injected activity in spleen [1, 10]: 2.62±0.08%
- decrease of liver GCase activity within 40 min [1, 11]: ~30%
- decrease of spleen enzyme activity by 40 min [1, 11]: ~40%
- liver GCase activity by 42 h [1, 11]: 13–15 % of WT
- time liver activity remained at or above WT levels [1, 11]: 3 h
- time spleen activity remained at ≥WT levels [1, 11]: ~3.5 h
- t½ of CRIM disappearance in liver [1, 11]: 1.5 to 1.83 h
- t½ of GCase activity disappearance in liver [1, 11]: ~1.67 h
- t½ of GCase protein disappearance in spleen [1, 11]: 1.0 to 1.5 h
- peak liver activity relative to WT [1, 11]: 2.5- to 3.5 fold
- peak spleen activity relative to WT ([1]; 20-wk 9 V/null mice, 20 min post-injection, 60 U/kg i.v.): 3- to 4.5 fold
- time liver activity remained at ≥WT level ([1]; 20-wk 9 V/null mice, as restated): ~180 min
- enzyme recovered in spleens and lungs ([1]; after bolus i.v. injections, abstract): < 5%
- injected enzyme recovered from the liver ([1]; intravenous bolus, discussion): ≥ 60%
- Recovery of injected activity in serum ([2]; 5-wk 9 V/null mice): 63.06±4.62%
- serum activity by 20 min post-injection ([2]; 9 V/null mice, 60 U/kg i.v.): < 10 % of the 2-min values
- t½ of clearance of GCase activity in serum ([2]; 9 V/null mice, 60 U/kg i.v.): 8 to 11 min
- Recovery of injected activity in serum ([2]; 20-wk 9 V/null mice): 58.16±1.61%
- catalytic value (CRIM-SA) of intact enzyme remaining in serum by 20 min ([2]; 60 U/kg i.v.): < 10 % of its original catalytic value
- t½ of GCase CRIM disappearance in serum ([2]; both age groups, 60 U/kg i.v.): ~0.217 h
- Total serum IgE levels (9 V/null mice [3]): 46.4 to 234.9 ng/mL
- serum anti-GCase IgG signals (9 V/null mice [4]; 5 or 15 U/kg/wk, each bleed): at background or very low levels
- injected mice with increased serum anti-GCase IgG (9 V/null mice [4]; 60 U/kg/wk, by the 4th injection): > 50%
- increase of serum anti-GCase IgG levels above background (9 V/null mice [4]; 60 U/kg/wk, by the 4th injection, at ∼3×10^3 dilution): ~3 fold
- degradation by cathepsin D after 4 h (cathepsin D): 72–76%
- degradation by cathepsin D within 4 h (cathepsin D): completely degraded

B2: imiglucerase (protein)
chain: B1 chain with R495H
modifications: short N-linked oligosaccharide chains with ~3 exposed α-mannosyl residues
- documented IgE-mediated or anaphylactic reactions (patients): < 1%
- patients who developed an IgG antibody response (patients): 13–15%
- injected mice with increased serum anti-GCase IgG (9 V/null mice [5]): > 50%
- serum activity by 20 min post-injection [6]: < 10 % of the 2-min values
- t½ of GCase CRIM disappearance in serum [6]: ~0.217 h
- t½ of clearance of GCase activity in serum [6]: 8 to 11 min
- catalytic value (CRIM-SA) of intact enzyme remaining in serum by 20 min ([6]; 20 min): < 10 % of its original catalytic value
- time liver activity remained at ≥WT level [7]: ~180 min
- decrease of spleen enzyme activity by 40 min ([7]; iv): ~40%
- enzyme localized to the liver interstitial cells ([7]; iv): ≥ 80%
- enzyme recovered in spleens and lungs ([7]; iv): < 5%
- injected enzyme recovered from the liver ([7]; iv): ≥ 60%
- peak spleen activity lower than in 20-wk mice ([7]; iv): 2- to 3 fold
- t½ of CRIM disappearance in liver ([7]; iv): 1.5 to 1.83 h
- t½ of CRIM levels in spleen ([7]; iv): ~1 h
- t½ of GCase activity disappearance in liver ([7]; iv): ~1.67 h
- t½ of GCase protein disappearance in spleen ([7]; iv): 1.0 to 1.5 h
- t½ of activity disappearance in liver ([7]; iv): about 60 min
- degradation by cathepsin D after 4 h (cathepsin D): 72–76%
- degradation by cathepsin D within 4 h (cathepsin D): completely degraded
